Experiments:
Assay in all cases: two-hybrid library CCmax;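 further: natural log of median RNA to DNA barcode read ratio; higher means stronger binding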
4H3056-AA = molecular target: T1, 4H3056-AA; conditions: mean of both orientations
T1 chain: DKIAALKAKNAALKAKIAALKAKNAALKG

4H1310-AA = molecular target: T2, 4H1310-AA
T2 chain: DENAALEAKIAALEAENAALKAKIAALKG

4H1845-AA = molecular target: T3, 4H1845-AA; conditions: mean of both orientations
T3 chain: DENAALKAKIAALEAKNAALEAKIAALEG

4H2620-AA = molecular target: T4, 4H2620-AA; conditions: mean of both orientations
T4 chain: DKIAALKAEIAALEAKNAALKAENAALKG

4H3413-AA = molecular target: T5, 4H3413-AA; conditions: mean of both orientations
T5 chain: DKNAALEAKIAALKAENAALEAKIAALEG

4H3133-AA = molecular target: T6, 4H3133-AA; conditions: mean of both orientations
T6 chain: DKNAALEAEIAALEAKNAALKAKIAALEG

4H3162-AA = molecular target: T7, 4H3162-AA; conditions: mean of both orientations
T7 chain: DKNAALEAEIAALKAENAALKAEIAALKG

4H3588-AA = molecular target: T8, 4H3588-AA; conditions: mean of both orientations
T8 chain: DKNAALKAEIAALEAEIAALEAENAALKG

4H1597-AA = molecular target: T9, 4H1597-AA; conditions: mean of both orientations
T9 chain: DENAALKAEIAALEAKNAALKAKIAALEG

4H2553-AA = molecular target: T10, 4H2553-AA; conditions: mean of both orientations
T10 chain: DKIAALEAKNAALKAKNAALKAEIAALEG

4H1385-AA = molecular target: T11, 4H1385-AA; conditions: mean of both orientations
T11 chain: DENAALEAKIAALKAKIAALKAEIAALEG

DENAALEAKIAALEAENAALKAKIAALKG [4H1310-AA]
interaction score (4H3056-AA): -1.47
interaction score (4H1310-AA): 1.62
interaction score (4H1845-AA): -0.784
interaction score (4H2620-AA): -1.03
interaction score (4H3413-AA): 1.51
interaction score (4H3133-AA): 0.253
interaction score (4H3162-AA): -0.508
interaction score (4H3588-AA): -1.22
interaction score (4H1597-AA): 0.746
interaction score (4H2553-AA): -1.34
interaction score (4H1385-AA): -1.04
